Test results as given in article PMC4880302.

Experiments:
[1] = biological target: RPM-1 chimeric HMPV/RSV F protein (HMPV F with the grafted RSV site A/II palivizumab/motavizumab epitope) (human metapneumovirus, B2 strain); assay: SEC; gel filtration of complexes made of RPM-1 and Fab
[2] = biological target: RPM-1 chimeric HMPV/RSV F protein (HMPV F with the grafted RSV site A/II palivizumab/motavizumab epitope) (human metapneumovirus, B2 strain); assay: SPR; BiOptix 404pi; F proteins captured on NiHC1000m chip through their C-terminal His tag to 120 RU; Fab injected at 300 to 0.14 nM, 100 ul/min; 10 mM HEPES pH 7.2, 150 mM NaCl, 0.005% Tween 20, 50 uM EDTA; simple Langmuir model

B1: motavizumab Fab (affinity-matured variant of palivizumab, anti-RSV F site II/A) (Fab, V domains shown)
VH: QVTLRESGPALVKPTQTLTLTCTFSGFSLSTAGMSVGWIRQPPGKALEWLADIWWDDKKHYNPSLKDRLTISKDTSKNQVVLKVTNMDPADTATYYCARDMIFNFYFDVWGQGTTVTVSS
VL: DIQMTQSPSTLSASVGDRVTITCSASSRVGYMHWYQQKPGKAPKLLIYDTSKLASGVPSRFSGSGSGTEFTLTISSLQPDDFATYYCFQGSGYPFTFGGGTKVEIK
stoichiometry N (Fabs per F trimer) [1]: 3 | Kd [2]: 7.11 pM | koff [2]: 1.8e-05 s⁻¹ | kon [2]: 2.41e+06 M⁻¹ s⁻¹ | t1/2 [2]: 10.9 h
